Primed or numbered codes have the meaning given here. Where no end group is shown, it is not given here. PEG12′ = PEG spacer of 12 units between cholesterol and peptide
T1: cholesterol-PEG12-(EIAALEK)4 (cholesterol-PEG12 anchor, as printed: cholesterol-PEG12-(EIAALEK)4)
T1 construct: printed as (EIAALEK)4, written out four times; coiled coil forming lipidated peptide; also called SNARE fusion mimetic; lipopeptide; source: reconstituted into pore-spanning membranes
T1 peptide: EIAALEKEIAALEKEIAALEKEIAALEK

B1: cholesterol-PEG12-(KIAALKE)4 (peptide)
peptide: {cholesterol-PEG12′}-KIAALKEKIAALKEKIAALKEKIAALKE
notes: printed as (KIAALKE)4, written out four times; coiled coil forming lipidated peptide; also called SNARE fusion mimetic; lipopeptide; source: reconstituted into large unilamellar vesicles
B2: synaptobrevin 2 (residues 49-96, soluble C-terminal fragment) (domain or fragment, Rattus norvegicus, UniProt P63045 49-96, looked up)
chain: NVDKVLERDQKLSELDDRADALQAGASQFETSAAKLKRKYWWKNLKMM
notes: synaptobrevin 2, Rattus norvegicus, residues 49-96; also called C-terminal soluble fragment of synaptobrevin 2 (residues 49-96); soluble fragment of synaptobrevin 2; source: E. coli BL21(DE3), pET28a, purified (Ni-NTA, MonoS)

Tests used:
[1] = molecular target: T1, cholesterol-PEG12-(EIAALEK)4; assay: single vesicle docking on planar pore-spanning membranes (two color confocal fluorescence microscopy); target reconstituted in pore-spanning membranes (DOPC/POPE/POPS/cholesterol 5:2:1:2, 1,000:1, Oregon Green DHPE), binder in Texas Red DHPE doped LUVs (1,000:1, 325 nm); buffer A (20 mM HEPES, 100 mM KCl, 1 mM DTT, pH 7.4); time series of 300 s; details: both partners purified
[2] = molecular target: T2, syntaxin 1A (residues 183-288) (Rattus norvegicus, UniProt P32851 183-288); assay: assembly of the complex from purified proteins and purification by ion exchange chromatography (MonoQ); three purified proteins mixed with an excess of SNAP25a (1:1:1.5) in 1% CHAPS, over night at 7 °C, complex purified by MonoQ; details: both partners purified
T2 construct: syntaxin 1A, Rattus norvegicus, residues 183-288; source: E. coli BL21(DE3), pET28a, purified (Ni-NTA, MonoQ, 1% CHAPS); also reconstituted alone into pore-spanning membranes
T2 sequence (P32851 183-288): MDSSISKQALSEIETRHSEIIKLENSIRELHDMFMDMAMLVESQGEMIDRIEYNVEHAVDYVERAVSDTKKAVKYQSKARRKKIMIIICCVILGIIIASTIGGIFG

Row | Binder | binding result [1] | binding result [2]
1 | B1 | binds | 
2 | B2 |  | binds

Source: article PMC4499801, “Resolving single membrane fusion events on planar pore-spanning membranes” (Scientific Reports, 2015)
